Among the data in publication PMC12594171, “DKK3-LRP1 complex and a chemical inhibitor regulate Aβ clearance in models of Alzheimer’s disease” (Science Advances, 2025) are Kd values, retold here.

One test addresses T1, DKK3-AP (UniProt Q9UBP4 22-350).
T1 construct: DKK3 cDNA cloned into the pAPtag-5 vector (GenHunter, QV5); also called DKK3 tagged with alkaline phosphatase (AP) and 6 × His; source: HEK293, transfected, conditioned medium; purified with Ni-NTA Agarose beads; not shown: alkaline phosphatase (AP), C-terminal, kept
Nature of the test: SPR; Biacore T200; purified mLRPIV-6×His (15 μM) amine-coupled to a CM5 chip; DKK1 or DKK3 at 6.25 to 200 nM. The note with it: both partners purified. In general terms: In SPR one partner is held on a chip, and binding of the other changes the refractive index at the surface.

A further test concerns the target T2, DKK1-AP (UniProt O94907 32-266).
T2 construct: DKK1 cDNA cloned into the pAPtag-5 vector (GenHunter, QV5); also called DKK1 tagged with alkaline phosphatase (AP) and 6 × His; source: HEK293, transfected, conditioned medium; purified with Ni-NTA Agarose beads; not shown: alkaline phosphatase (AP), C-terminal, kept
T2 sequence (looked up): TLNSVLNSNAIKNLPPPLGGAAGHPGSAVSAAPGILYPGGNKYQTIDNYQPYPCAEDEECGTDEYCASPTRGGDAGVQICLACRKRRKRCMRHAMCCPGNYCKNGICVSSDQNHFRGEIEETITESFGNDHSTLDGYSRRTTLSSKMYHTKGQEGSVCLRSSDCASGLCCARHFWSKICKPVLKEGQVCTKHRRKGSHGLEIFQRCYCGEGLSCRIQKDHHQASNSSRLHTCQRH
The description is as above. To be noted: both partners purified.

The Kd is the constant that tells how readily two partners part at equilibrium. Low readings indicate tighter binding, high ones weaker binding.

T1 sequence (Q9UBP4 22-350): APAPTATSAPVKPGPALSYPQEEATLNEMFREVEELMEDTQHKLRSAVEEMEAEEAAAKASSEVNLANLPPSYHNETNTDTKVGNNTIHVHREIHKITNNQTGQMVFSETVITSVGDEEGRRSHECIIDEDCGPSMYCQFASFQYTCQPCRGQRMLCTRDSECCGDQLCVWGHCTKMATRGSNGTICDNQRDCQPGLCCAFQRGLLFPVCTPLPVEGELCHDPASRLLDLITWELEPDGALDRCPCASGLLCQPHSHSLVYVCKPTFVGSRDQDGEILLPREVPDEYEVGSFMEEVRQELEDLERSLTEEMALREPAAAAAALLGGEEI

B1: mLRPIV-6 × His, prokaryotically expressed (domain or fragment)
chain: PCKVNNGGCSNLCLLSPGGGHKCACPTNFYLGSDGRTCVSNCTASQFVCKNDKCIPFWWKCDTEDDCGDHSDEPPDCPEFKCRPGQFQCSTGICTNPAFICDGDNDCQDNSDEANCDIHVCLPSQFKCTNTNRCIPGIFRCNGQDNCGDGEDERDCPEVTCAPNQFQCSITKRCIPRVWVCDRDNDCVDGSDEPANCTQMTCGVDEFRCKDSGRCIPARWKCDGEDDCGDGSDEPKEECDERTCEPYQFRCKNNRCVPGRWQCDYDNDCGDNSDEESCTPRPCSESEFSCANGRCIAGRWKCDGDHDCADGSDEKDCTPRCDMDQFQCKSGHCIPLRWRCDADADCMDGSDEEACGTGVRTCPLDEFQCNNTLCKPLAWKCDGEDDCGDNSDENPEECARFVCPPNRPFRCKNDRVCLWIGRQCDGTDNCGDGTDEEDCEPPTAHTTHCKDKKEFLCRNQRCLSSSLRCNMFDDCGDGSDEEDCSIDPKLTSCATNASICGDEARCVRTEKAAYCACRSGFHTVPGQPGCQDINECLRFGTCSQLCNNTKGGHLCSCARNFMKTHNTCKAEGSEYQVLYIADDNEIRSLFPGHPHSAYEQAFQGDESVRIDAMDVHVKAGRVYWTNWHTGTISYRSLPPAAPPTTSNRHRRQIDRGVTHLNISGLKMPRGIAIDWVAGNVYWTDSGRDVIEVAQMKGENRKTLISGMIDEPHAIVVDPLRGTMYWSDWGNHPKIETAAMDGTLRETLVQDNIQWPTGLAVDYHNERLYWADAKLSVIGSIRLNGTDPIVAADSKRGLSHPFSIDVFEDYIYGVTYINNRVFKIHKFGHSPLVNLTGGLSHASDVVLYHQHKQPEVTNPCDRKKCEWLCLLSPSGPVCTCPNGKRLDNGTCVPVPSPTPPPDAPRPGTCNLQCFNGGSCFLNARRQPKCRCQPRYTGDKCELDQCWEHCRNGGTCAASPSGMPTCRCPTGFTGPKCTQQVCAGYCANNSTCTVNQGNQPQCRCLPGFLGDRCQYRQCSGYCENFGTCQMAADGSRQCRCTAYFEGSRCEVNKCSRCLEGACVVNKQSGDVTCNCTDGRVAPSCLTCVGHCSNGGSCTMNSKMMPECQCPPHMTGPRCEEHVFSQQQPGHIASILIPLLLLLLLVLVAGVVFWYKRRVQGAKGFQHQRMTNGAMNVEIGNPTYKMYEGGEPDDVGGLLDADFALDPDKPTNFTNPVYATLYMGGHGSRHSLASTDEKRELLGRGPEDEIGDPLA
As for B1, the Kd was determined as 35.5 nM with DKK3-AP and 82.3 nM with DKK1-AP.
